According to patent publication US20090111745A1:
Read-outs that look alike come from different tables or passages of the source.

Tests used:
[1] = target: human serum albumin (human) (UniProt P02768); experiment: sandwich ELISA, HSA coated at 10 µg/ml, control at 1 µM, detection with anti-FITC antibody
[2] = target: interleukin-1 type 1 receptor (human) (UniProt P14778); experiment: cell-based or functional assay
[3] = target: human serum albumin (human) (UniProt P02768)

Chain of recombinant human IL-1ra (R&D systems) (P18510 other isoform, or with tags, fused parts or gaps): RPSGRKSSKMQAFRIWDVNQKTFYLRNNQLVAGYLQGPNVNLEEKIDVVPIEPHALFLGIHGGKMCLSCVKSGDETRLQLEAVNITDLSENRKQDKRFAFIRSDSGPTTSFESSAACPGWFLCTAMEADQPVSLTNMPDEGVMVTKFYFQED
Chain of uncoupled saporin (enzyme) (P20656 25-277): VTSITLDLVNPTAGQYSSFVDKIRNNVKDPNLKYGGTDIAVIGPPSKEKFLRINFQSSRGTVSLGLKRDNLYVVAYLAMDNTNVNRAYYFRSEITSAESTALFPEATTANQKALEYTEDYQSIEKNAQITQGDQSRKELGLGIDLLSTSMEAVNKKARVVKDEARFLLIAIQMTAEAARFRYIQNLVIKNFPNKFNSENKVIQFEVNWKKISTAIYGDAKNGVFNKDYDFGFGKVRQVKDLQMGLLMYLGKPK
Chain of interleukin-1 type 1 receptor (human) (P14778 18-569): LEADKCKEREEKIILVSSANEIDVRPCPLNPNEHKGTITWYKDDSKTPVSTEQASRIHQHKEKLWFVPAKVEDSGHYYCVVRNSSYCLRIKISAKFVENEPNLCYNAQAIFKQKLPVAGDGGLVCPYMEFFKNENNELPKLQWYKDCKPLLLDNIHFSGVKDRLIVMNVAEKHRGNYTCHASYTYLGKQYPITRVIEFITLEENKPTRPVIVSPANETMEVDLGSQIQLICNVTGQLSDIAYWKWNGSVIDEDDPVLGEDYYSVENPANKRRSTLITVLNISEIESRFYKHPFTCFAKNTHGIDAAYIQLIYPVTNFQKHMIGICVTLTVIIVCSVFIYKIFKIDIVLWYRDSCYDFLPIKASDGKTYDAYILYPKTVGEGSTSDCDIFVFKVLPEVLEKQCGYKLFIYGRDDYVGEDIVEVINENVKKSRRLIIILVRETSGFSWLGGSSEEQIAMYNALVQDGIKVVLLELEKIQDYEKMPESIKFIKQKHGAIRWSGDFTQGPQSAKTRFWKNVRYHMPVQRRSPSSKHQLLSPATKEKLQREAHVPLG

Q: control FITC coupled antibody was tested. Which OD600 [1] did it give?
A: Its OD600 is 0.049 OD600.

Q: With “recombinant human IL-1ra (R&D systems) (from UniProt P18510 26-176) (ligand)” as the substance, how does the ND50 (neutralizing dose 50), IL-1-induced IL-8 secretion by MRC-5 cells [2] read?
A: The ND50 (neutralizing dose 50), IL-1-induced IL-8 secretion by MRC-5 cells was 0.5 nM.

Q: For uncoupled saporin (enzyme), which OD600 [3] is on record?
A: The OD600 was 0.079 OD600.
